Our source for the EC50, Top (MFI) and Top values is patent US20240301052A1 (LANOVA MEDICINES DEVELOPMENT, published 2024).

Where “and” joins values, the source holds several entries; their conditions need not be identical. Equal entries are not always repeated. Where two headings read alike, the source gives them in different places.

Assay [1] addresses T1, human SLC34A2 (human, UniProt O95436 1-690).
T1 sequence (looked up): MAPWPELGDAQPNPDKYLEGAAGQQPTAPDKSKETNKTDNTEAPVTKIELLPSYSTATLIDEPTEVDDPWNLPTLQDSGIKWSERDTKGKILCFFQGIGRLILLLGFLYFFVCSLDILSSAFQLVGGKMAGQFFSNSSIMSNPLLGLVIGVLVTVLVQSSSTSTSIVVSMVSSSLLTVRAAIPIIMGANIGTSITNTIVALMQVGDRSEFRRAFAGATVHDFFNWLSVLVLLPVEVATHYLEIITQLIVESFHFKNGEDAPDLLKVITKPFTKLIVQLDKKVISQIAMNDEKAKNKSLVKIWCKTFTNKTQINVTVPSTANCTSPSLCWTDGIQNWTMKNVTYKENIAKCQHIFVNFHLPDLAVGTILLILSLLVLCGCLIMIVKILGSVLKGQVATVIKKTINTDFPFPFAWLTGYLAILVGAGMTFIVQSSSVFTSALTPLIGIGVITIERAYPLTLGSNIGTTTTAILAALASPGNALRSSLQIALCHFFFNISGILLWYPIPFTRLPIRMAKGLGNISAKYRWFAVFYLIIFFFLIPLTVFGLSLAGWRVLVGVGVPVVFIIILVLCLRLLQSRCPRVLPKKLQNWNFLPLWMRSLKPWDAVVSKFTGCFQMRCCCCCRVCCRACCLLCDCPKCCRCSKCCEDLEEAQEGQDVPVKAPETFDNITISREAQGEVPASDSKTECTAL
Description: FACS, RMG-1 cells.

For assay [2], the target named is T1, human SLC34A2. The assay is described as follows: FACS, OVCAR3 cells. Background: Flow cytometry measures light scatter and fluorescence of single cells or particles in a stream.
In assay [3] the target is T2, rat SLC34A2 (rat, UniProt Q9JJ09 1-695).
T2 construct: whole, on cells
T2 sequence (looked up): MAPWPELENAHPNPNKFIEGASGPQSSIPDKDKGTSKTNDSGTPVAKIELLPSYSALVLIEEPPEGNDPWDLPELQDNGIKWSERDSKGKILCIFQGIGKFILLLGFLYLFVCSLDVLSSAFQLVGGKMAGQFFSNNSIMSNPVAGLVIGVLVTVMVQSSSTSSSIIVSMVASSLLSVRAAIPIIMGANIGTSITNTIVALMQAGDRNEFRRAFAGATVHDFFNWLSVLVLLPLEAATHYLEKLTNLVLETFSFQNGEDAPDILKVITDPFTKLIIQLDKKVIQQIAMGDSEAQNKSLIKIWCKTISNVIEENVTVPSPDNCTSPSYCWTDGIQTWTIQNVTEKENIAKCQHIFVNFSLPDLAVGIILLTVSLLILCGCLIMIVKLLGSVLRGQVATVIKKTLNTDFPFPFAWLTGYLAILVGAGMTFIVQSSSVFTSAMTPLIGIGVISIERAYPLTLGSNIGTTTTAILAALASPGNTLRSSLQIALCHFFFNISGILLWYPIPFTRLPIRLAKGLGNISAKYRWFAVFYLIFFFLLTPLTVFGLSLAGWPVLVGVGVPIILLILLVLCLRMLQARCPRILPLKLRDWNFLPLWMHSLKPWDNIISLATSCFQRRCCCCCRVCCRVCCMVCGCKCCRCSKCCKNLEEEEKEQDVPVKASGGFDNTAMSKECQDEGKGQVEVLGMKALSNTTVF
Description: FACS, HEK293/Rat SLC34A2 cells.

For assay [4], the target named is T1, human SLC34A2. The assay is described as follows: FACS, HEK293/human SLC34A2 cells.
The target of assay [5] is T1, human SLC34A2. Description: FACS, HEK293/human SLC34A2 cells. This is another data set of the same source.
Assay [6] addresses T3, Rhesus SLC34A2 (Rhesus, UniProt F7HDA3 1-690).
T3 construct: whole, on cells
T3 sequence: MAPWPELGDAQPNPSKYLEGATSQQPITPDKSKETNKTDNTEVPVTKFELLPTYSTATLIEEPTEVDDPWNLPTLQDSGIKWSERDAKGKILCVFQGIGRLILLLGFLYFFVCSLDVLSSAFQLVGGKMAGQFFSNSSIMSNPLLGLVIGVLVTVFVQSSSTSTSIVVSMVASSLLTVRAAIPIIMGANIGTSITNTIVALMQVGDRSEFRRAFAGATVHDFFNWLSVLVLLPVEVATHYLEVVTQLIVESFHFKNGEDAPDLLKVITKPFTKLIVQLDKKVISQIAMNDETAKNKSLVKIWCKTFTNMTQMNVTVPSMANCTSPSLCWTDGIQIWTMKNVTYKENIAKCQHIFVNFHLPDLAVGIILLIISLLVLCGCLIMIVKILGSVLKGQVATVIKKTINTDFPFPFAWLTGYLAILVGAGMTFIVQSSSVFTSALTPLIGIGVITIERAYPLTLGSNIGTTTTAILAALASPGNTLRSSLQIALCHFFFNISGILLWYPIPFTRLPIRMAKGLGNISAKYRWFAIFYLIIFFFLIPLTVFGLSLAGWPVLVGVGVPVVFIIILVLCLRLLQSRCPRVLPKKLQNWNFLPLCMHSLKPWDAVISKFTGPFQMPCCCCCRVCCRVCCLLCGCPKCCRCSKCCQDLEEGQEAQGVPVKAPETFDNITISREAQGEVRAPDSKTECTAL
Description: FACS, HEK293/Rhesus SLC34A2 cells.

In assay [7] the target is T3, Rhesus SLC34A2. The assay is described as follows: FACS, HEK293/Rhesus SLC34A2 cells. The source holds these as a separate data set.

B1: XMT-1536 (antibody, INN chains, looked up, V domains shown)
VH: QVQLVQSGAEVVKPGASVKMSCKASGYTFTGYNIHWVKQAPGQGLEWIGAIYPGNGDTSYKQKFRGRATLTADTSTSTVYMELSSLRSEDSAVYYCARGETARATFAYWGQGTLVTVSS
VL: DIQMTQSPSSLSASVGDRVTITCSASQDIGNFLNWYQQKPGKTVKVLIYYTSSLYSGVPSRFSGSGSGTDYTLTISSLQPEDFATYYCQQYSKLPLTFGQGTKLELK
modifications: rilsodotin auristatin payload
The EC50 is the concentration needed to bring the measured effect to its halfway point. High values mean lower potency in that assay, low ones higher potency in that assay. Regarding B1, the EC50 in assay [1] was 4.87 nM; in assay [2] it was 4.31 nM and 3.99 nM; in assay [3], 4.48 nM; in assay [4], 2.68 nM; in assay [5], 4.27 nM; in assay [6], 2.54 nM. The concentration giving a half-maximal response (EC50) in assay [7] turned out to be 2.6 nM. In addition, the Top (MFI) in assay [1] is 9110 MFI; in assay [2], 40200 MFI and 26700 MFI; in assay [6] it was 11900 MFI; in assay [7] it was 11500 MFI. In assay [4], this molecule had a Top of 32400 MFI.
